Results: patent US20130273029A1 (Novartis, published 2013)
Where two headings read alike, the source gives them in different places.

How the values were obtained:
[1] = molecular target: T1, HER3 D3-4: CD33-[Human HER3, residues 330-643]-TAG (human, UniProt P21860 330-643); test: ELISA on coated recombinant protein, antibody titrated (Example 7); readout on the sheet is Fluorescence Units
T1 construct: also called D3-4-Tag; isolated domains 3-4; not shown: C-terminal TAG (e.g., FLAG TAG)

[2] = molecular target: T2, HER3 D2: CD33-[Human HER3, residues 185-329]-TAG (human, UniProt P21860 185-329); test: as above
T2 construct: also called D2-Tag; isolated D2 protein; not shown: C-terminal TAG (e.g., FLAG TAG)
T2 sequence (P21860 185-329): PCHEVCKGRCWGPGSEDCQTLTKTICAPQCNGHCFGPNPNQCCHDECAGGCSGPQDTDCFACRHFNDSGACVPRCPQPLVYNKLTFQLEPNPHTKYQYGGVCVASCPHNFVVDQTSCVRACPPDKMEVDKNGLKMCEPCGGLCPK

[3] = molecular target: T3, HER3 D4: CD33-[Human HER3, residues 496-643]-TAG (human, UniProt P21860 496-643); test: as above
T3 construct: also called D4-Tag; isolated domain 4; not shown: C-terminal TAG (e.g., FLAG TAG)
T3 sequence (P21860 496-643): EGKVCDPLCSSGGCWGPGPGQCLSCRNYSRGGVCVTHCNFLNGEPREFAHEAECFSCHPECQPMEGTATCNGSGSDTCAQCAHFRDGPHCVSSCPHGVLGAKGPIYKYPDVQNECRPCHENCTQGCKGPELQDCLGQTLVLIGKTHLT

[4] = molecular target: T4, Hu HER3: CD33-[Human HER3, residues 20-640]-TAG (human, UniProt P21860 20-640); test: binding ELISA on human HER3 (WT), IgG titrated (Example 7); fluorescence 435/530 nm
T4 construct: also called hu HER3-Tag; HER3-Tag; not shown: C-terminal TAG (e.g., FLAG TAG)
T4 sequence (P21860 20-640): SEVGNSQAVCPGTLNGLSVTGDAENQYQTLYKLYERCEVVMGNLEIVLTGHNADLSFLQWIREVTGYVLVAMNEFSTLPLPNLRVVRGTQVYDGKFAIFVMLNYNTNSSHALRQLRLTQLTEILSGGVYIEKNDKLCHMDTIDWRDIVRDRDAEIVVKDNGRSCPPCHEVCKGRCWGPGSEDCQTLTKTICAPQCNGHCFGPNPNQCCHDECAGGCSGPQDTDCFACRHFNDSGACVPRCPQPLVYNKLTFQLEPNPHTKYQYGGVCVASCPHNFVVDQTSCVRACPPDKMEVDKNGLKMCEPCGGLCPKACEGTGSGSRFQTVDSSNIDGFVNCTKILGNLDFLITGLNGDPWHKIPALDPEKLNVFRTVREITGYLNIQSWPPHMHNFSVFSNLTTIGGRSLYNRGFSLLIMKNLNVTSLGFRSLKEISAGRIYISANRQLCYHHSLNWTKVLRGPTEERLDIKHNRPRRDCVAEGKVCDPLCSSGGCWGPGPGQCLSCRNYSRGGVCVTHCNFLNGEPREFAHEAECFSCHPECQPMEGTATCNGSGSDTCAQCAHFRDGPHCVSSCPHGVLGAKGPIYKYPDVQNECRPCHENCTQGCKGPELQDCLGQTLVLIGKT

[5] = molecular target: T5, Human HER3, endogenous, on human cancer cell lines (SK-Br-3, MCF7, BT-474) (human, UniProt P21860 20-1342); test: cell-based or functional assay
T5 sequence (P21860 20-1342): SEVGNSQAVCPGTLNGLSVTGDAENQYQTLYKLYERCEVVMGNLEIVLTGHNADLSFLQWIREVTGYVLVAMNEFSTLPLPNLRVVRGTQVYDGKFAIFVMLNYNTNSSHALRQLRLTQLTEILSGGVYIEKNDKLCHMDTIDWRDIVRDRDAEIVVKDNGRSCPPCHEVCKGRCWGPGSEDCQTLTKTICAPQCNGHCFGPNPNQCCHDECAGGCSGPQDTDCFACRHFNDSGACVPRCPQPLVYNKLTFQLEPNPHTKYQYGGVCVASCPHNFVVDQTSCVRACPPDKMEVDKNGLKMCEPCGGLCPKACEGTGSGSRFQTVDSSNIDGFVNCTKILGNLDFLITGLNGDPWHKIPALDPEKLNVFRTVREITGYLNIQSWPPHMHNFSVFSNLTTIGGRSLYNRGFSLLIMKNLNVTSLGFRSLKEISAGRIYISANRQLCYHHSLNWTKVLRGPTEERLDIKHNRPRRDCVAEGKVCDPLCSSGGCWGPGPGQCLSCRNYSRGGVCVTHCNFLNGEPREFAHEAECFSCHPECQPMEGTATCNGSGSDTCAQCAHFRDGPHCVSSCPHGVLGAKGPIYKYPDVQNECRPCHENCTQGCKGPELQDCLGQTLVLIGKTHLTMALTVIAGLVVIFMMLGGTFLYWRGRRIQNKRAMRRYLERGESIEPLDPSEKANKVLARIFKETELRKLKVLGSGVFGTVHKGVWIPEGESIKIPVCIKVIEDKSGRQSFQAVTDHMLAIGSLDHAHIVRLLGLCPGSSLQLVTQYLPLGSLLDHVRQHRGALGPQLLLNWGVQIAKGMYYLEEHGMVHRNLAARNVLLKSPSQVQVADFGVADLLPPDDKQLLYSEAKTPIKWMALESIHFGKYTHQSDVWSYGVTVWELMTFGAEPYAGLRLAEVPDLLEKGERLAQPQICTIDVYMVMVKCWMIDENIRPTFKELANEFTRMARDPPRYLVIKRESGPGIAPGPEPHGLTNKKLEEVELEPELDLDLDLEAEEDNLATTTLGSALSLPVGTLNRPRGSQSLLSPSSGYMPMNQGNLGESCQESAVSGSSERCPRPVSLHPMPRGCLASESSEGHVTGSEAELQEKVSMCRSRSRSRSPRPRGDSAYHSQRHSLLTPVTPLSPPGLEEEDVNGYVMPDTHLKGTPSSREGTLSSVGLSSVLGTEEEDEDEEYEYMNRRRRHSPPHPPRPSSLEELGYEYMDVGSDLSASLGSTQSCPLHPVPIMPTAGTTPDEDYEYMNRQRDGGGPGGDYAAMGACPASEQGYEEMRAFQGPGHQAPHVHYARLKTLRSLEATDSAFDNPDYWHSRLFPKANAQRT

[6] = molecular target: T5, Human HER3, endogenous, on human cancer …; test: cell-based or functional assay; remark: listed apart in the source
[7] = molecular target: T5, Human HER3, endogenous, on human cancer …; test: cell-based or functional assay; remark: listed apart in the source
[8] = molecular target: T6, Mu HER3: CD33-[Murine HER3, residues 20-643]-TAG (murine, UniProt Q61526 20-643); test: SET, IgG vs soluble HER3-Tag
T6 construct: also called mu HER3-Tag; not shown: C-terminal TAG (e.g., FLAG TAG)
T6 sequence (Q61526 20-643): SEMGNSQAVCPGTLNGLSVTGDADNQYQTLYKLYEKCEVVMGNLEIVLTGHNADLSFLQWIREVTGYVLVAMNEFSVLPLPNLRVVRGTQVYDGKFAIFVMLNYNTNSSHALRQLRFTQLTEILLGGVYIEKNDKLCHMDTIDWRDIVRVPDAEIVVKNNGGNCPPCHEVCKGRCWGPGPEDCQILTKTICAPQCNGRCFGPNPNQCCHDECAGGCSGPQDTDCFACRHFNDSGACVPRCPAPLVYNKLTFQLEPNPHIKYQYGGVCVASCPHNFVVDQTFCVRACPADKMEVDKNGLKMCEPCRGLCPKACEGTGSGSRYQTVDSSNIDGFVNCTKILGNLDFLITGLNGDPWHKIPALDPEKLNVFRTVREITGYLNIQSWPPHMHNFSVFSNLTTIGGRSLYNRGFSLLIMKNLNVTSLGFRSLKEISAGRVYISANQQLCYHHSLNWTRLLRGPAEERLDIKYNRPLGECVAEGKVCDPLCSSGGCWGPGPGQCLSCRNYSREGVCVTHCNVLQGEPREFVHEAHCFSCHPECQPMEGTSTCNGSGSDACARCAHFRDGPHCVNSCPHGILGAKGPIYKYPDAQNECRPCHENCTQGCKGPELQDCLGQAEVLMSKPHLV
Outline: (§1)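 Affinity measured by solution equilibrium titration, with read-out moved from classical ELISA to ECL-based detection for sensitivity. Titration data were fitted with customized fitting models.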

[9] = molecular target: T7, Rat HER3: CD33-[Rat HER3, residues 20-643]-TAG (rat, UniProt Q62799 20-643); test: SET, IgG vs soluble HER3-Tag
T7 construct: also called ra HER3-Tag; not shown: C-terminal TAG (e.g., FLAG TAG)
T7 sequence (Q62799 20-643): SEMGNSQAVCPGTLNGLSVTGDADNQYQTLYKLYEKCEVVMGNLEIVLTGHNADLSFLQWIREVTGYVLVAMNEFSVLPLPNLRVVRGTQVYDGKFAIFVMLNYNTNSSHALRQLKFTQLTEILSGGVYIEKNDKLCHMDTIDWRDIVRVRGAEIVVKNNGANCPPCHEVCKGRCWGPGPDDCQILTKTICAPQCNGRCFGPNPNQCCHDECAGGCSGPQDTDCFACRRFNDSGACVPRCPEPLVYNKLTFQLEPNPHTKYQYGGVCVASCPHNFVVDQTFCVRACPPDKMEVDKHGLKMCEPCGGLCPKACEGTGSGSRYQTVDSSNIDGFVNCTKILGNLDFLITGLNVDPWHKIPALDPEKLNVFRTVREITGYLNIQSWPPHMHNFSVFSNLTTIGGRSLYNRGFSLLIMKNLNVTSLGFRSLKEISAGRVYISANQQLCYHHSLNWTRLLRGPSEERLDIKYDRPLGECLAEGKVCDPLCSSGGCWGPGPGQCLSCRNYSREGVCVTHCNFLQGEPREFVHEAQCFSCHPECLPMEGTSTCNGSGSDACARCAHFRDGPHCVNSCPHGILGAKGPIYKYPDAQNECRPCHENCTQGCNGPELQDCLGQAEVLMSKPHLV
Outline: as §1

[10] = molecular target: T8, Cyno HER3: CD33-[Cyno HER3, residues 20-643]-TAG (cynomolgus, UniProt G7PIG5 20-643); test: SET, IgG vs soluble HER3-Tag
T8 construct: also called cy HER3-Tag; not shown: C-terminal TAG (e.g., FLAG TAG)
T8 sequence (G7PIG5 entry or part of it): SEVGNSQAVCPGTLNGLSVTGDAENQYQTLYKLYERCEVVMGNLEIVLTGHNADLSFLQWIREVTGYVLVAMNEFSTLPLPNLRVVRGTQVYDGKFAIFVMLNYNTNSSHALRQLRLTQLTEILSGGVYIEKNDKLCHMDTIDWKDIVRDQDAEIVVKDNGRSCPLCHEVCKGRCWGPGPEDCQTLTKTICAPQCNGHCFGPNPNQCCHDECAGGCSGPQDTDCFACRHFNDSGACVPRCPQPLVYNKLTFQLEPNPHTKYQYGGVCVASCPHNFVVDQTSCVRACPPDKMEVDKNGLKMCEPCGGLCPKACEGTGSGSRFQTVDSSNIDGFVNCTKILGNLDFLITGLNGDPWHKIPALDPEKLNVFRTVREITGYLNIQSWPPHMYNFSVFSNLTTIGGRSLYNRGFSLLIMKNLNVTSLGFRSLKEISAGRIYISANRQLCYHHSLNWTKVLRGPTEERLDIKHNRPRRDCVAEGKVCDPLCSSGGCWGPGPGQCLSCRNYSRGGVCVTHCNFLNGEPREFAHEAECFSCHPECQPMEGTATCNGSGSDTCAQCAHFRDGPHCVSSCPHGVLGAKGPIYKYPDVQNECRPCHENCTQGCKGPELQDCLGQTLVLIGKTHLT
Outline: as §1

[11] = molecular target: T4, Hu HER3: CD33-[Human HER3, residues …; test: SET, IgG vs soluble HER3-Tag
Outline: as §1

[12] = molecular target: T4, Hu HER3: CD33-[Human HER3, residues …; test: SET, IgG vs HER3 ECD
Protocol: Affinity determination in solution was essentially performed as previously described (Friguet et al., (1985) J Immunol Methods 77:305-19). In order to improve the sensitivity and accuracy of the SET method, it was transferred from classical ELISA to ECL based technology (Haenel et al., (2005) Anal Biochem 339:182-84).
The data was evaluated with XLfit software (ID Business Solutions) applying customized fitting models.
Antibody affinity was determined by solution equilibrium titration (SET) as described above. The results are summarized in Table 3 and example titration curves for MOR12616 and MOR12925 are contained in FIG. 1.

[13] = molecular target: T9, HER3 K267A/L268A: CD33-[Human HER3, residues 20-640, K267A/L268A]-TAG (human, UniProt P21860 20-640); test: SET
T9 construct: not shown: C-terminal TAG (e.g., FLAG TAG)
T9 sequence (P21860 20-640 K267A/L268A): as the sequence (P21860 20-640) above, with K248A, L249A counted along it

[14] = molecular target: T10, HER3 L268A: CD33-[Human HER3, residues 20-640, L268A]-TAG (human, UniProt P21860 20-640); test: SET
T10 construct: also called HER3 L268A-Tag; human mutant HER3 (L268A); not shown: C-terminal TAG (e.g., FLAG TAG)
T10 sequence (P21860 20-640 L268A): as the sequence (P21860 20-640) above, with L249A counted along it

[15] = molecular target: T11, HER3 K267A: CD33-[Human HER3, residues 20-640, K267A]-TAG (human, UniProt P21860 20-640); test: SET, IgG vs mutant HER3
T11 construct: also called HER3 K267A-Tag; not shown: C-terminal TAG (e.g., FLAG TAG)
T11 sequence (P21860 20-640 K267A): as the sequence (P21860 20-640) above, with K248A counted along it

[16] = molecular target: T1, HER3 D3-4: CD33-[Human HER3, residues …; test: ELISA on coated recombinant protein, antibody titrated (Example 7); readout on the sheet is Fluorescence Units; remark: listed apart in the source
[17] = molecular target: T2, HER3 D2: CD33-[Human HER3, residues …; test: as above; remark: listed apart in the source
[18] = molecular target: T3, HER3 D4: CD33-[Human HER3, residues …; test: as above; remark: listed apart in the source

T1 sequence (P21860 330-643): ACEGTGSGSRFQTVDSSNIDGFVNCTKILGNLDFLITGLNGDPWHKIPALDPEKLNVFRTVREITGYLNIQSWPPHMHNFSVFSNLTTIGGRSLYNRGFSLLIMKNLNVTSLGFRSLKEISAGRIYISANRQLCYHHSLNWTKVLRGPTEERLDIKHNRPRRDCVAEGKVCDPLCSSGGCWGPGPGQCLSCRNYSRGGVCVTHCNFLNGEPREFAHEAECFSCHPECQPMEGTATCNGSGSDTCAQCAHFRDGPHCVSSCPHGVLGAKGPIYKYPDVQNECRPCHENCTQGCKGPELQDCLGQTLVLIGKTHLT

| Binder | EC50 (read off the curve) [4] [nM] | BT-474 pAkt (S473) % inhibition [5] [%] | BT-474 pAkt (S473) IC50 [5] [pM] | MCF7 pAkt (S473) % inhibition [5] [%] | MCF7 pAkt (S473) IC50 [5] [pM] | SK-Br-3 pAkt (S473) % inhibition [5] [%] | SK-Br-3 pAkt (S473) IC50 [5] [pM] | BT-474 proliferation % inhibition [6] [%] | BT-474 proliferation IC50 [6] [nM] | MCF7 proliferation % inhibition [6] [%] | MCF7 proliferation IC50 [6] [nM] | SK-Br-3 proliferation % inhibition [6] [%] | SK-Br-3 proliferation IC50 [6] [nM] | BT474 pHER3 % inhibition [7] [%] | BT474 pHER3 IC50 [7] [pM] | MCF7 pHER3 % inhibition [7] [%] | MCF7 pHER3 IC50 [7] [pM] | SK-Br-3 pHER3 % inhibition [7] [%] | SK-Br-3 pHER3 IC50 [7] [pM] | Kd [11] [nM] | further results |
| --- | --- | --- | --- | --- | --- | --- | --- | --- | --- | --- | --- | --- | --- | --- | --- | --- | --- | --- | --- | --- | --- |
| MOR12616 (antibody, human IgG1, kappa, V domains shown, tested as IgG) VH: QVQLVQSGAEVKKPGESLKISCKGSGYSFTNSWVAWVRQMPGKGLEWMGIIYPGNSDTIYSPSFQGQVTISADKSISTAYLQWSSLKASDTAMYYCARVHIIQPPSAWSYNAMDVWGQGTLVTVSS VL: DIQMTQSPSSLSASVGDRVTITCRASQSISTYLNWYQQKPGKAPKLLIFGASNLQSGVPSRFSGSGSGTDFTLTISSLQPEDFATYYCQQSITELFTFGQGTKVEIKR | ~0.1 | 78 | 316 | 80 | 442 | 89 | 88 | 45 | 0.635 | 32 | 0.415 | 48 | 0.123 | 58 | 436 | 76 | 245 | 75 | 142 | 0.02 | binding result [1]: no binding (tested: 10 µg/ml); EC50 (read off the curve) [2]: ~0.2 µg/mL; binding result [3]: no binding (tested: 10 µg/ml); Kd [8]: 0.041 nM; Kd [9]: 0.122 nM; Kd [10]: 0.074 nM |
| MOR13768 (antibody, human IgG1, kappa, V domains shown, tested as IgG) VH: QVQLVQSGAEVKKPGESLKISCKGSGYSFTSSWVAWVRQMPGKGLEWMGIIYPGQSDTIYSPSFQGQVTISADKSISTAYLQWSSLKASDTAMYYCARVHIIQPPSAWSYNAMDVWGQGTLVTVSS VL: DIQMTQSPSSLSASVGDRVTITCRASQSISTYLNWYQQKPGKAPKLLIFGASNLQSGVPSRFSGSGSGTDFTLTISSLQPEDFATYYCQQSITELFTFGQGTKVEIKR |  | 81 | 466 | 73 | 347 | 94 | 105 | 43 | 1.21 | 58 |  | 43 | 0.198 | 70 | 437 | 75 | 412 | 81 | 139 | 0.037 | Kd [12]: 0.037 nM; binding result [13]: no binding; binding result [14]: no binding; Kd [15]: 0.099 nM |
| MOR12925 (antibody, human IgG1, kappa, V domains shown, tested as IgG) VH: QVQLVQSGAEVKKPGESLKISCKGSGYSFSNYWIAWVRQMPGKGLEWMGIIYPGNSDTIYSPSFQGQVTISADKSISTAYLQWSSLKASDTAMYYCARVHIIQPPSAWSYNAMDVWGQGTLVTVSS VL: DIQMTQSPSSLSASVGDRVTITCRASQSISTYLNWYQQKPGKAPKLLIFGASNLQSGVPSRFSGSGSGTDFTLTISSLQPEDFATYYCQQSITELFTFGQGTKVEIKR | ~0.1 | 80 | 255 | 82 | 295 | 88 | 93 | 47 | 0.522 | 47 | 0.604 | 40 | 0.101 | 63 | 2160 | 81 | 327 | 75 | 136 | 0.028 | binding result [16]: no binding (tested: 10 µg/ml); EC50 (read off the curve) [17]: ~0.1 µg/mL; binding result [18]: no binding (tested: 10 µg/ml); Kd [8]: 0.038 nM; Kd [9]: 0.1 nM; Kd [10]: 0.074 nM |
